{
  "source": "patent US20180044434A1",
  "key": {"[1]": {"molecular_target": "T1, Ala mutant having 3-amino acid substitution, SEQ ID NO: 46", "T1 sequence (peptide)": "EENMDDAAAQDEMEIGY", "assay": "ELISA, coated peptide"}, "[2]": {"molecular_target": "T2, Ala mutant of TA0096, SEQ ID NO: 32", "T2 sequence (peptide)": "EENMDAQWMQDEMEIGY", "assay": "ELISA, coated peptide"}},
  "data": [
    {"substance": "anti-dinitrophenyl (DNP) antibody (negative control)", "values": [
      {"measurement": "OD 490/630 nm", "setting": "[1]", "value": 0.052},
      {"measurement": "OD 490/630 nm", "setting": "[2]", "value": 0.012}
    ]}
  ]
}
